To fix the notation:
B1: CLuc-FGF14 [human] / CD4-Nav1.6 C-tail-NLuc [human] (parent)
chain 1: MVKPVPLFRRTDFKLLLCNHKDLFFLRVSKLLDCFSPKSMWFLWNIFSKGTHMLQCLCGKSLKKNKNPTDPQLKGIVTRLYCRQGYYLQMHPDGALDGTKDDSTNSTLFNLIPVGLRVVAIQGVKTGLYIAMNGEGYLYPSELFTPECKFKESVFENYYVIYSSMLYRQQESGRAWFLGLNKEGQAMKGNRVKKTKPAAHFLPKPLEVAMYREPSLHDVGETVPKPGVTPSKSTSASAIMNGGKPVNKSKTT
chain 2: IVVNMYIAIILENFSVATEESADPLSEDDFETFYEIWEKFDPDATQFIEYCKLADFADALEHPLRVPKPNTIELIAMDLPMVSGDRIHCLDILFAFTKRVLGDSGELDILRQQMEERFVASNPSKVSYEPITTTLRRKQEEVSAVVLQRAYRGHLARRGFICKKTTSNKLENGGTHREKKESTPSTASLPSYDSVTKPEKEKQQRAEEGRRERAKRQKEVRESKC

The variants in this assay derive from B1. The experiment in a line: split-luciferase complementation assay (LCA) in HEK293 cells. Particulars: with CD4-Nav1.6 C-tail-NLuc [human], DMSO vehicle control of the same pair = 100, read off a plot.

For chain 1 Y158N V160N, the screen value (% Luminescence (RLU)) is, setting by setting: (EYYV peptide 50 µM present) 79; (FLPK peptide 50 µM present) 100; (PLEV peptide 50 µM present) 72.
On to chain 1 V160A, for which the screen value (% Luminescence (RLU)) (EYYV peptide 50 µM present) came to 93, the screen value (% Luminescence (RLU)) (FLPK peptide 50 µM present) stood at 91 and the screen value (% Luminescence (RLU)) (PLEV peptide 50 µM present) turned out to be 94.
On the same counts, the results for chain 1 Y158A V160A are 100, 99 and 110.
For the variant chain 1 Y158A, the screen value (% Luminescence (RLU)) was 100 (EYYV peptide 50 µM present), 87 (FLPK peptide 50 µM present) and 110 (PLEV peptide 50 µM present).

The record behind these values is paper PMC7363588, “Mapping of the FGF14:Nav1.6 complex interface reveals FLPK as a functionally active peptide modulating excitability” (Physiological Reports, 2020).
